Results on 50 sequences are retold here after the supplement of paper PMC9112550, “Optimization of the antimicrobial peptide Bac7 by deep mutational scanning” (BMC Biology, 2022).

This data set concerns Escherichia coli TOP10. The data set can be described thus: shrunken log2 fold change of peptide-encoding DNA abundance (4.5 h post-induction vs induction); higher = less antimicrobial activity (less host growth inhibition). The settings on record: time post-induction: 4.5 h; library: site-saturation at positions 5, 18, 19, 20.
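Also: peptides expressed intracellularly from a pBAD plasmid library in pooled LB shake-flask culture, induced with 0.3% L-arabinose, DNA abundance read by NGS, three biological replicates, DESeq2 with apeglm shrinkage.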

As to RRIRVRPPRLPRPRPRPWILPRP, the “shrunken log2 fold change” value is 0.000714.
Under RRIRVRPPRLPRPRPRPDPLPRP stands -0.231.
As for RRIRHRPPRLPRPRPRPPCVPRP, the figure is -0.108; as for RRIRSRPPRLPRPRPRPPSYPRP, -0.555; as for RRIRRRPPRLPRPRPRPNALPRP, 0.261.
Under RRIRPRPPRLPRPRPRPVVFPRP stands 0.0396; under RRIRCRPPRLPRPRPRPAQAPRP, 0.147.
For RRIRTRPPRLPRPRPRPHAFPRP, the “shrunken log2 fold change” value was -0.128.
Under RRIRIRPPRLPRPRPRPNMNPRP stands -0.773; under RRIRARPPRLPRPRPRPVANPRP, 0.238; under RRIRHRPPRLPRPRPRPRQNPRP, 0.0341.
For RRIRERPPRLPRPRPRPLFTPRP, the “shrunken log2 fold change” value was -0.55.
As for RRIRNRPPRLPRPRPRPPTFPRP, the figure is 0.145; as for RRIRVRPPRLPRPRPRPRQYPRP, 0.00898; as for RRIRWRPPRLPRPRPRPRSFPRP, -0.00655.
Under RRIRERPPRLPRPRPRPSMQPRP stands -0.759.
As for RRIRVRPPRLPRPRPRPTLNPRP, the figure is -0.102.
On to RRIRNRPPRLPRPRPRPYTPPRP, for which the “shrunken log2 fold change” value is -0.0563.
As for RRIRYRPPRLPRPRPRPNNIPRP, the figure is -1.24; as for RRIRARPPRLPRPRPRPMLNPRP, -0.167; as for RRIRVRPPRLPRPRPRPRTWPRP, 0.0366.
As to RRIRQRPPRLPRPRPRPAQFPRP, the “shrunken log2 fold change” value worked out at 0.237.
Take RRIRFRPPRLPRPRPRPSNGPRP: the “shrunken log2 fold change” value was -0.238.
As for RRIRPRPPRLPRPRPRPHPAPRP, the figure is 0.217; as for RRIRARPPRLPRPRPRPSAFPRP, 0.54.
Regarding RRIRCRPPRLPRPRPRPIRSPRP, the “shrunken log2 fold change” value was -0.389.
Under RRIRHRPPRLPRPRPRPMLKPRP stands -0.164; under RRIRRRPPRLPRPRPRPIYKPRP, -0.394.
Under RRIRTRPPRLPRPRPRPKWRPRP stands 0.394.
As for RRIRWRPPRLPRPRPRPSWVPRP, the figure is 0.0566; as for RRIRKRPPRLPRPRPRPSLKPRP, -0.0893; as for RRIRMRPPRLPRPRPRPDFSPRP, 0.0199.
RRIRTRPPRLPRPRPRPSNSPRP: the “shrunken log2 fold change” value was -1.22.
For the sequence RRIRMRPPRLPRPRPRPQGDPRP, the “shrunken log2 fold change” value is -0.477.
Under RRIRFRPPRLPRPRPRPWSIPRP stands -0.0103; under RRIRFRPPRLPRPRPRPIACPRP, -0.0937.
As for RRIRPRPPRLPRPRPRPNTMPRP, the figure is -0.492.
Under RRIRMRPPRLPRPRPRPPGVPRP stands 0.919.
Consider RRIRKRPPRLPRPRPRPYPYPRP, for which the “shrunken log2 fold change” value was -0.125.
Under RRIRGRPPRLPRPRPRPFHTPRP stands -0.161.
Under RRIRHRPPRLPRPRPRPVNTPRP stands -0.18; under RRIRKRPPRLPRPRPRPTPMPRP, 0.555; under RRIRCRPPRLPRPRPRPEMEPRP, 0.00408.
Under RRIRQRPPRLPRPRPRPSMAPRP stands -0.135; under RRIRVRPPRLPRPRPRPCQIPRP, -0.34; under RRIRDRPPRLPRPRPRPRMNPRP, -0.168.
For RRIRIRPPRLPRPRPRPRRRPRP, the “shrunken log2 fold change” value stood at 0.169.
As for RRIRERPPRLPRPRPRPNIPPRP, the figure is -0.396.
As for RRIRSRPPRLPRPRPRPACAPRP, the figure is 0.482; as for RRIRIRPPRLPRPRPRPMEQPRP, -0.00783.
